In the supplement of paper PMC7125110:
± gives the standard error. For some assays here: Variants at the floor of the assay were thinned out.

B1: glmS ribozyme (parent)
chain: AUAAAAGCGCCAGAACUACAGAAAUGUAGUUGACGAGGAGGAGGUUUAUCGAAUUUUCGGCGGAUGCCUCCAAA

What was measured:
Conditions in all cases: with glucosamine-6-phosphate
glucosamine-6-phosphate [1] = variants of: B1; assay: kcat; higher = faster cleavage; RNA array
Outline: (§1)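 E. coli RNA polymerase transcribed barcoded ribozyme variants in situ on sequenced MiSeq chips, which were tracked via a hybridised Cy3 probe at 37 °C. Tiles were imaged over ~14 h after glucosamine-6-phosphate (40 μM to 10 mM) in HEPES/KCl/Mg(OAc)2 buffer was flowed in. Normalised per-tile medians were fit to one- or two-exponential decays for kobs, and kcat and KM came from weighted Michaelis–Menten fits.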

glucosamine-6-phosphate [2] = variants of: B1; assay: self-cleavage kobs at 160 uM GlcN6P; higher = faster cleavage; RNA array
Outline: as §1

glucosamine-6-phosphate [3] = variants of: B1; assay: self-cleavage kobs at 640 uM GlcN6P; higher = faster cleavage; RNA array
Outline: as §1

glucosamine-6-phosphate [4] = variants of: B1; assay: self-cleavage kobs at 2500 uM GlcN6P; higher = faster cleavage; RNA array
Outline: as §1

glucosamine-6-phosphate [5] = variants of: B1; assay: self-cleavage kobs at 10000 uM GlcN6P; higher = faster cleavage; RNA array
Outline: as §1

glucosamine-6-phosphate [6] = variants of: B1; assay: KM; higher = weaker cofactor use; RNA array
Outline: as §1

glucosamine-6-phosphate [7] = variants of: B1; assay: self-cleavage kobs at 40 uM GlcN6P; higher = faster cleavage; RNA array
Outline: as §1

Variant | kcat (glucosamine-6-phosphate [1]) | self-cleavage kobs at 160 uM GlcN6P (glucosamine-6-phosphate [2]) | self-cleavage kobs at 640 uM GlcN6P (glucosamine-6-phosphate [3]) | self-cleavage kobs at 2500 uM GlcN6P (glucosamine-6-phosphate [4]) | self-cleavage kobs at 10000 uM GlcN6P (glucosamine-6-phosphate [5]) | KM (glucosamine-6-phosphate [6]) | self-cleavage kobs at 40 uM GlcN6P (glucosamine-6-phosphate [7])
G37A U47C | 0.000634 ± 0.00022 s⁻¹ | 8.31e-05 ± 2.2e-05 s⁻¹ | 0.000181 ± 3.8e-05 s⁻¹ | 0.000398 ± 7.7e-05 s⁻¹ | 0.00103 ± 0.00045 s⁻¹ |  | 
G40A A64G | 0.00353 ± 0.0011 s⁻¹ | 0.000131 ± 3.3e-05 s⁻¹ | 0.000538 ± 9e-05 s⁻¹ | 0.00188 ± 0.00029 s⁻¹ | 0.00259 ± 0.00038 s⁻¹ | 3100 ± 1400 µM | 7.68e-05 ± 1.3e-05 s⁻¹
A39C U46C U56C | 0.000367 ± 3.7e-05 s⁻¹ |  | 6.45e-05 ± 1.5e-05 s⁻¹ | 0.000196 ± 5.6e-05 s⁻¹ | 0.000277 ± 5.9e-05 s⁻¹ | 2880 ± 510 µM | 
G37C G59U | 1.65e-05 ± 6.9e-06 s⁻¹ |  |  |  |  |  | 
G37A G43U | 4.94e-05 ± 4.8e-06 s⁻¹ | < 1e-05 s⁻¹ |  | 4.23e-05 ± 7.6e-06 s⁻¹ | 4.34e-05 ± 1.1e-05 s⁻¹ | 620 ± 300 µM | < 1e-05 s⁻¹
G35U U65A | < 1e-05 s⁻¹ |  | < 1e-05 s⁻¹ | < 1e-05 s⁻¹ |  |  | < 1e-05 s⁻¹
G38C A52C | < 1e-05 s⁻¹ | < 1e-05 s⁻¹ |  |  | < 1e-05 s⁻¹ |  | < 1e-05 s⁻¹
A39G U45G | 0.0109 ± 0.0044 s⁻¹ | 0.00207 ± 0.00047 s⁻¹ | 0.00416 ± 0.00099 s⁻¹ | 0.00467 ± 0.0013 s⁻¹ | 0.0173 ± 0.0023 s⁻¹ |  | 0.00047 ± 6.3e-05 s⁻¹
G37U C71A | 1.95e-05 ± 4.6e-06 s⁻¹ |  |  |  |  |  | 
G37A U69C | 0.0003 ± 5.9e-05 s⁻¹ |  | 0.000116 ± 2.2e-05 s⁻¹ | 0.000167 ± 3.3e-05 s⁻¹ | 0.000325 ± 5.8e-05 s⁻¹ | 1170 ± 530 µM | 
A39G G66C | 0.00327 ± 0.0016 s⁻¹ | 0.000141 ± 3.4e-05 s⁻¹ | 0.000484 ± 9.6e-05 s⁻¹ | 0.00169 ± 0.00033 s⁻¹ |  |  | 7.7e-05 ± 2.6e-05 s⁻¹
G40A G41A U55G | 8.3e-05 ± 7.3e-06 s⁻¹ |  | 4.12e-05 ± 1.4e-05 s⁻¹ | 7.85e-05 ± 2.1e-05 s⁻¹ | 7.52e-05 ± 1.5e-05 s⁻¹ | 578 ± 220 µM | 
A36U C67U | < 1e-05 s⁻¹ |  |  |  |  |  | 
G38U C67G | 1.53e-05 ± 7.3e-06 s⁻¹ |  |  |  |  |  | 
G40A G41A | 0.000106 ± 2.5e-05 s⁻¹ |  | 6.83e-05 ± 1.2e-05 s⁻¹ | 0.000163 ± 2.3e-05 s⁻¹ | 8.89e-05 ± 1e-05 s⁻¹ |  | 
G40A A53U | 0.00621 ± 0.0028 s⁻¹ | 0.000422 ± 0.00011 s⁻¹ | 0.00107 ± 0.00016 s⁻¹ | 0.00268 ± 0.00057 s⁻¹ | 0.00711 ± 0.001 s⁻¹ |  | 0.00015 ± 1.5e-05 s⁻¹
A39U G66U | 0.0039 ± 0.0011 s⁻¹ | 0.000292 ± 5.6e-05 s⁻¹ | 0.000735 ± 8.7e-05 s⁻¹ | 0.0018 ± 0.00025 s⁻¹ | 0.00372 ± 0.00032 s⁻¹ | 2010 ± 860 µM | 0.000107 ± 1e-05 s⁻¹
A39U U55A | 0.0539 ± 0.0098 s⁻¹ | 0.00146 ± 0.00024 s⁻¹ | 0.00564 ± 0.001 s⁻¹ | 0.0142 ± 0.0033 s⁻¹ | 0.0376 ± 0.0091 s⁻¹ | 5710 ± 1200 µM | 0.000396 ± 9.4e-05 s⁻¹

Variant | kcat (glucosamine-6-phosphate [1]) | self-cleavage kobs at 160 uM GlcN6P (glucosamine-6-phosphate [2]) | self-cleavage kobs at 640 uM GlcN6P (glucosamine-6-phosphate [3]) | self-cleavage kobs at 2500 uM GlcN6P (glucosamine-6-phosphate [4]) | self-cleavage kobs at 10000 uM GlcN6P (glucosamine-6-phosphate [5]) | KM (glucosamine-6-phosphate [6]) | self-cleavage kobs at 40 uM GlcN6P (glucosamine-6-phosphate [7])
G38A U45A | < 1e-05 s⁻¹ |  | < 1e-05 s⁻¹ |  |  |  | 
C34G U47G C58A C68A | 5.47e-05 ± 1.4e-05 s⁻¹ | 6.99e-05 ± 1.7e-05 s⁻¹ | 6.8e-05 ± 3.3e-05 s⁻¹ | 6.86e-05 ± 2.9e-05 s⁻¹ |  |  | 
A39G C50A | 3.27e-05 ± 5.7e-06 s⁻¹ |  |  |  |  |  | 
A36U G37A | 1.19e-05 ± 3e-06 s⁻¹ |  |  |  |  |  | 
G37U A52G | < 1e-05 s⁻¹ |  | < 1e-05 s⁻¹ |  |  |  | < 1e-05 s⁻¹
A39G A53U | 0.0202 ± 0.0043 s⁻¹ | 0.00271 ± 0.00057 s⁻¹ | 0.0101 ± 0.0016 s⁻¹ | 0.0119 ± 0.0027 s⁻¹ | 0.0229 ± 0.0041 s⁻¹ | 805 ± 260 µM | 0.00108 ± 0.00016 s⁻¹
G37A G66C | 0.000578 ± 0.0001 s⁻¹ | 4.54e-05 ± 1.4e-05 s⁻¹ | 0.000117 ± 1.8e-05 s⁻¹ | 0.000357 ± 5.8e-05 s⁻¹ | 0.000439 ± 8.7e-05 s⁻¹ | 2250 ± 630 µM | 
G35C C58U | < 1e-05 s⁻¹ | < 1e-05 s⁻¹ | < 1e-05 s⁻¹ |  |  |  | 
G37C C50A C58A U69A | 5.12e-05 ± 2.4e-05 s⁻¹ |  | 8.62e-05 ± 3.4e-05 s⁻¹ |  |  |  | 
G38A G59C | < 1e-05 s⁻¹ |  | < 1e-05 s⁻¹ |  | < 1e-05 s⁻¹ |  | < 1e-05 s⁻¹
G37A A48C | 1.56e-05 ± 6e-07 s⁻¹ | < 1e-05 s⁻¹ |  |  |  | 1270 ± 290 µM | 
A39G G43A | 0.0004 ± 8.6e-05 s⁻¹ |  | 5.25e-05 ± 1.8e-05 s⁻¹ | 0.000109 ± 2.1e-05 s⁻¹ | 0.000259 ± 4.9e-05 s⁻¹ | 5960 ± 2100 µM | 
A39C C71G | 1.47e-05 ± 1.2e-06 s⁻¹ | < 1e-05 s⁻¹ |  |  |  |  | 
G37A A64G | 0.00317 ± 0.0014 s⁻¹ | 5.16e-05 ± 2.1e-05 s⁻¹ | 0.000337 ± 6.8e-05 s⁻¹ | 0.000977 ± 0.00019 s⁻¹ | 0.002 ± 0.00025 s⁻¹ |  | 6.01e-05 ± 1.3e-05 s⁻¹
A39G U56C | 0.00799 ± 0.002 s⁻¹ | 0.000656 ± 0.00018 s⁻¹ | 0.00106 ± 0.00014 s⁻¹ | 0.0039 ± 0.00058 s⁻¹ | 0.00611 ± 0.00076 s⁻¹ | 3240 ± 1100 µM | 0.000109 ± 1.2e-05 s⁻¹
G38U C50G | 4.08e-05 ± 1.4e-05 s⁻¹ |  |  | 6.94e-05 ± 1.4e-05 s⁻¹ |  |  | 
A39U A42U U55G G66U | 0.000223 ± 7.5e-06 s⁻¹ |  | 8.2e-05 ± 2.5e-05 s⁻¹ | 0.000166 ± 5.4e-05 s⁻¹ | 0.000198 ± 3.5e-05 s⁻¹ | 1100 ± 96 µM | 
